The values below come from patent US20210230599, “STEM-LOOP COMPOSITIONS AND METHODS FOR INHIBITING INTERLEUKIN-8” (VITRISA THERAPEUTICS, INC., published 2021).

Data set [1] deals with T1, Interleukin-8 (IL8, CXCL8), C-terminal His-tagged (Homo sapiens, UniProt P10145 SEQ:1-72). Put plainly: competition; competition TR-FRET. Conditions: tags: C-terminal 6xHis (Sino Biological); stem-loop.
The target of data set [2] is T1, Interleukin-8 (IL8, CXCL8), C-terminal …. Put plainly: TR-FRET; bead flow 11 nM. Conditions: tags: C-terminal 6xHis (Sino Biological); label: Alexa Fluor 647. The method, then: (§1) Aptamers were synthesized and labeled with ALEXA FLUOR® 647, and binding to IL8 was quantified by Time-Resolved Fluorescence Resonance Energy Transfer (TR-FRET). Briefly, 2-fold dilutions of thermally equilibrated aptamers were made in TR-FRET Buffer (50 mM MOPS, pH 7.4, 125 mM NaCl, 5 mM KCl, 50 μM CHAPS, 0.1 mg/mL BSA, 1 mM CaCl₂ and 1 mM MgCl₂). […] of aptamer or control solution was added to 10 μL of 15 nM C-His-tagged-IL8 (Sino Biological) in a black wall half-area plate (Corning). In the same plate, 10 μl of aptamer solution was added to 10 μl of TR-FRET buffer alone to use for background subtraction. 10 μl of 15 nM anti-His-Eu (Perkin Elmer) was added to each well, the plate was covered with a plate seal and subsequently incubated in the dark for 1 hour at room temperature. The plate was read on a Biotek CYTATION™ 5 plate reader. Samples were excited at 330 nm and fluorescent values were collected at 665 nm. […] Apparent Kd values obtained for the fits are calculated as the concentration of half-maximal binding and shown in Table 10, and fit curves as FIG. 6. […] It is also possible that differences may arise due to TR-FRET being a homogenous solution binding assay, while bead binding has immobilized ligand and is non-homogenous, so bound aptamers may dissociate during analysis resulting in higher calculated Kd values.

For data set [3] the target is unchanged. As to the kind of experiment: flow; bead-immobilized IL8, 37 C. To be noted: tags: C-terminal 6xHis (Sino Biological); label: Alexa Fluor 647. As for the experimental part: (§2) Chemically synthesized aptamers (Table 8) were labeled with ALEXA FLUOR® 647 and were used to test binding to IL8 in a bead based assay using flow cytometry. In brief, fluorescently labeled aptamers were heated at 90° C. for 3 minutes in SB1T and were allowed to cool at room temperature for 5 minutes, after which they were incubated with c-his-IL8, immobilized on DYNABEADS® His-Tag Isolation and Pulldown beads in SB1T buffer containing 0.1% BSA, 1 μg/μl ssDNA and 1 μg/μl heparin sulphate at two different aptamer concentrations: 10 nM and 100 nM. Following incubation for 30 minutes at 37° C., the beads were washed three times with SB1T, re-suspended in SB1T buffer and analyzed by flow cytometry. […] Negligible or complete lack of binding seen in cases of some aptamers (e.g., Aptamers 4, 9, 10, and 16) could be due to the removal of the constant regions. No binding was observed when similar experiments were performed in the absence of protein (data not shown).
Flow cytometry was used to measure the apparent binding affinity for Aptamer 2, Aptamer 3, Aptamer 5, Aptamer 6, Aptamer 8, Aptamer 11, Aptamer 12, Aptamer 13, Aptamer 14, Aptamer 20, Aptamer 22, Aptamer 23, and Aptamer 25 using bead immobilized c-his-IL8. […] Following incubation for 30 minutes at 37° C., the beads were washed and fluorescence was measured by flow cytometry. […]

Data set [4] has the same target. As to the kind of experiment: TR-FRET, 500 pM IL8; Table 10 gives 2 nM; bead flow 13 nM. To be noted: tags: C-terminal 6xHis (Sino Biological); label: Alexa Fluor 647; stem-loop (3 stems, 4 loops). As for the experimental part:
Under these assay conditions, the ability to measure the affinity accurately is limited by the input IL8 protein concentration, and the apparent Kd under these protein-limiting conditions was determined to be 8 nM.

Data set [5] has the same target. As to the kind of experiment: competition; competition TR-FRET; S2 disrupted. To be noted: tags: C-terminal 6xHis (Sino Biological). The method, then: (§3) To better understand the sequence requirements and to confirm the stem structures of members of the Aptamer 3 family as determined from sequence covariation analysis from both the primary and secondary (degenerate) selections, a series of variants which included mutations and deletions to the predicted stems were synthesized and screened (Table 24). Activity of each of these variants were tested using a time resolved competition TR-FRET assay in which the labeled parent Aptamer 3 was competed with increasing concentrations of unlabeled variants for binding to IL8 (FIG. 14). Briefly, 2-fold dilutions of thermally equilibrated aptamers were made in TR-FRET Buffer (50 mM MOPS, pH 7.4, 125 mM NaCl, 5 mM KCl, 50 μM CHAPS, 0.1 mg/mL BSA, 1 mM CaCl₂, and 1 mM MgCl₂). 5 μL of aptamer or control solution was added to 5 μl mix of 10 nM C-terminal His-tagged-IL8, 60 nM ALEXA FLUOR® 647-labeled Aptamer, and 5 nM anti-His-Eu (Perkin Elmer) in a black wall low volume 384 well plate (Greiner). For control, 5 μl of 1000-fold excess of unlabeled parent aptamer or 5 μl TR-FRET buffer alone was added to the mix of ALEXA FLUOR® 647-labeled aptamer, His-IL8, and anti-His-Eu. The plate was covered with a plate seal and subsequently incubated in the dark for 1 hour at room temperature. The plate was read on a Biotek CYTATION™ 5 plate reader. […]

Data set [6] shares this target. Put plainly: TR-FRET; bead flow 20 nM. Conditions: tags: C-terminal 6xHis (Sino Biological); label: Alexa Fluor 647. The method, then:
as §1

Data set [7] has the same target. Put plainly: TR-FRET; bead flow 16 nM. Conditions: tags: C-terminal 6xHis (Sino Biological); label: Alexa Fluor 647; stem-loop (Aptamer 3 family). The method, then:
as §1

For data set [8] the target is unchanged. As to the kind of experiment: competition; competition TR-FRET; U20A. To be noted: tags: C-terminal 6xHis (Sino Biological). The method, then: as §3
The target is the same in data set [9]. As to the kind of experiment: TR-FRET, 5 nM IL8, protein-limited; bead flow 13 nM. To be noted: tags: C-terminal 6xHis (Sino Biological); label: Alexa Fluor 647. The method, then: as §1
The target is the same in data set [10]. As to the kind of experiment: flow; appreciable binding, bead-immobilized IL8, 10 and 100 nM aptamer. Conditions: tags: C-terminal 6xHis (Sino Biological); label: Alexa Fluor 647. As for the experimental part: as §2
The target is the same in data set [11]. As to the kind of experiment: competition; competition TR-FRET; S3 mutant. Conditions: tags: C-terminal 6xHis (Sino Biological). As for the experimental part:
as §3

Data set [12] shares this target. Put plainly: competition; competition TR-FRET; S3 extended. To be noted: tags: C-terminal 6xHis (Sino Biological). As for the experimental part:
as §3

Data set [13] shares this target. As to the kind of experiment: TR-FRET; bead flow 7 nM. Conditions: tags: C-terminal 6xHis (Sino Biological); label: Alexa Fluor 647. The method, then:
as §1

Data set [14] has the same target. As to the kind of experiment: TR-FRET; bead flow 19 nM. To be noted: tags: C-terminal 6xHis (Sino Biological); label: Alexa Fluor 647. As for the experimental part: as §1
The target is the same in data set [15]. As to the kind of experiment: TR-FRET, 5 nM IL8, protein-limited. To be noted: tags: C-terminal 6xHis (Sino Biological); label: Alexa Fluor 647.
The target is the same in data set [16]. Put plainly: TR-FRET, 5 nM IL8, protein-limited; bead flow 18 nM. Conditions: tags: C-terminal 6xHis (Sino Biological); label: Alexa Fluor 647. The method, then: as §1

Molecule GCGACGGUAGAUUACGGGUAGAGUGACCGCGC (ssRNA, 2'-F G, 2'-OMe A/C/U, 5' C6NH2, 3' idT) [Aptamer 42] displayed a binding signal in [1] of roughly 1.4 fold worse than Aptamer 3.

For the molecule UAGCGGCCGAAGUUAGCGUACGUUUGCCGGGUACGU (ssRNA, 2'-F G, 2'-OMe A/C/U, 5' C6NH2, 3' idT) [Aptamer 2], the Kd in [2] amounted to 9 nM. Turning to UGACUGCGGUCGCAAGUUACGGAUUUGCCGCCCCGU (ssRNA, 2'-F G, 2'-OMe A/C/U, 5' C6NH2, 3' idT) [Aptamer 20], the Kd in [3] stood at 15 nM.

Regarding UGAUGACGGUAGAUUACGGGUAGAGUGACCGCAUCU (ssRNA, 2'-F G, 2'-OMe A/C/U, 5' C6NH2, 3' idT) [Aptamer 3], in data set [4], binding was put at a Kd of 0.214 nM. For the molecule UGAUGACCCUAGAUUACGGGUAGAGUGACCGCAUCU (ssRNA, 2'-F G, 2'-OMe A/C/U, 5' C6NH2, 3' idT) [Aptamer 188], the binding signal in data set [5] is greater than 10 fold worse than Aptamer 3. In data set [6], UCGUGAAGGGCGAUUCUGGUGCGUGUUCCCUCGCGU (ssRNA, 2'-F G, 2'-OMe A/C/U, 5' C6NH2, 3' idT) [Aptamer 5] gave an equilibrium dissociation constant (Kd) of 10 nM. Molecule UUGGCCACAGUAGAUUUCGGUGCGUGUGACUGGGCU (ssRNA, 2'-F G, 2'-OMe A/C/U, 5' C6NH2, 3' idT) [Aptamer 12] yielded a Kd in data set [7] of 12 nM. For CGGUGGGAAAUGUGAGAAGGGUUGCCG (ssRNA, 2'-F G, 2'-OMe A/C/U, 5' C6NH2, 3' idT) [Aptamer 59], in [8], the binding result was “binds”. For UCCGGUUGCUGAGAUGUGAGAUUAAUGUCCACCGUU (ssRNA, 2'-F G, 2'-OMe A/C/U, 5' C6NH2, 3' idT) [Aptamer 11], the dissociation constant (Kd) in data set [9] was 2 nM.

Consider UCAUGGGUUGCCAACCGGCCGUGUAUGUACGUACAU (ssRNA, 2'-F G, 2'-OMe A/C/U, 5' C6NH2, 3' idT) [Aptamer 25], for which the binding result in data set [10] was “binds”.

Consider GGCGACGGUAGACUACGGGUAGAGUGACCGCGCC (ssRNA, 2'-F G, 2'-OMe A/C/U, 5' C6NH2, 3' idT) [Aptamer 89], for which the binding signal in data set [11] is greater than 10 fold worse than Aptamer 3. In turn, GGCGACGGUAGAUCACGGGUAGGGUGACCGCGCC (ssRNA, 2'-F G, 2'-OMe A/C/U, 5' C6NH2, 3' idT) [Aptamer 90] had a binding signal in [12] greater than 10 fold worse than Aptamer 3.

UCUGAAUCGGCUGAAACGGGAGCAUUAAUGUCCGGU (ssRNA, 2'-F G, 2'-OMe A/C/U, 5' C6NH2, 3' idT) [Aptamer 22] showed a Kd in data set [13] of 15 nM. In data set [14], UUGCCCUUUGAUCGUACCGAGGCGGGGAAGUACGAU (ssRNA, 2'-F G, 2'-OMe A/C/U, 5' C6NH2, 3' idT) [Aptamer 24] displayed a Kd of 9 nM. Regarding UUAUUGCGGCCCGAUUUACCGAAUUUGCCGUCCGGU (ssRNA, 2'-F G, 2'-OMe A/C/U, 5' C6NH2, 3' idT) [Aptamer 7], the Kd in [15] is 2 nM. Regarding UCAGGCUGAAAAGUGAGCUAUAAUGUCCUGAUUGAU (ssRNA, 2'-F G, 2'-OMe A/C/U, 5' C6NH2, 3' idT) [Aptamer 6], binding in data set [16] was characterised by a dissociation constant (Kd) of 2 nM.
